Data as given in patent US20230167182A1 (BIOSION, published 2023).
Residue numbers refer to the chain shown, from its start.

T1: macaca IL6R-his protein (macaca mulatta)
T1 chain: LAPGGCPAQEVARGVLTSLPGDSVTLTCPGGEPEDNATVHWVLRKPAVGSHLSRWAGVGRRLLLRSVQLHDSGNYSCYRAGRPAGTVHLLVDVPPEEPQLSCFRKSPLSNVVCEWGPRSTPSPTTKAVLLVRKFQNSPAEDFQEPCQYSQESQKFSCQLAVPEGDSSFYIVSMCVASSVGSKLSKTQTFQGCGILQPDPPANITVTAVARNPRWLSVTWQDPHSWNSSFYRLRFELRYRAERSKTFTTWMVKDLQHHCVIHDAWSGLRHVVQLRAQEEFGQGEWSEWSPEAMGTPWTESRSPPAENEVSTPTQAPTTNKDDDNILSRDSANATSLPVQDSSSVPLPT

T2: recombinant human IL6R-his (human, UniProt P08887 20-365)
T2 construct: In house made; the entry includes the C-terminal His tag; also called human IL6R-his protein
T2 sequence: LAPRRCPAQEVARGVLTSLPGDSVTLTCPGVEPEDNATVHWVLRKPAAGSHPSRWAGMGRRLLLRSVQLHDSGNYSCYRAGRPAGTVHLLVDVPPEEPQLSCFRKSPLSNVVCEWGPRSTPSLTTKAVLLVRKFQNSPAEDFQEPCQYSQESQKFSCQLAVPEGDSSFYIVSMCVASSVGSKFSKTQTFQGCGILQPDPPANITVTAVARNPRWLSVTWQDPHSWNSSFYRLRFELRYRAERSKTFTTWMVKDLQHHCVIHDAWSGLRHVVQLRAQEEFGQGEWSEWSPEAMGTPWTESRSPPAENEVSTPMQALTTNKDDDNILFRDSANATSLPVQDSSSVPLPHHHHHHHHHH

B1: Tocilizumab (antibody, human IgG1, kappa, V domains shown)
VH: QVQLQESGPGLVRPSQTLSLTCTVSGYSITSDHAWSWVRQPPGRGLEWIGYISYSGITTYNPSLKSRVTMLRDTSKNQFSLRLSSVTAADTAVYYCARSLARTTAMDYWGQGSLVTVSS
VL: DIQMTQSPSSLSASVGDRVTITCRASQDISSYLNWYQQKPGKAPKLLIYYTSRLHSGVPSRFSGSGSGTDFTFTISSLQPEDIATYYCQQGNTLPYTFGQGTKVEIKR
notes: In house made; also called benchmark; Actemra
B2: mouse anti-IL6R monoclonal antibody 3C2 (antibody, V domains shown)
VH: QVQLQQPGTELVKPGASVKLSCKASGYTFTTYWIHWVKQRPGQGLEWIGEINPSNGRTNYNEHFKSKATLTVDKSSSTASMQLSSLTSADSAVYYCARLNTHYVFDSWGQGTTLTVSS
VL: EIVLTQSPTTMAASPGEKITITCSASSSISSNYLHWYQQKPGFSPKLLIYRTSNLASGVPTHFSGSGSGTSYSLTIGTMEAEDVATYYCQQGSGIPFTFGSGTKLEIK
notes: Mouse hybridoma mAb
B3: mouse anti-IL6R monoclonal antibody 1G1 (antibody, V domains shown)
VH: QVQLQQPGAELVKPGASVKLSCKASGYTFTSYWMHWVKVRPGQGLEWIGEINPTNGRTNYNEDFKSKATLTVESSSSTAYMQFSSLTSEDSAVYYCARLNTHYVFDYWGQGTTLTVSS
VL: B2 VL with T10I, M11L, I21F, A25V, T61A, H62R
notes: Mouse hybridoma mAb
B4: mouse anti-IL6R monoclonal antibody 1H9 (antibody, V domains shown)
VH: QVQLQQPGAELVKPGASVKLSCKASGYTFTSYWMHWVKLRPGQGLEWIGEINPTNGRTNYYEKFKNRATLTADKSSSTAYMQLSSLTFEDSAVYFCAKFHYSRWYFDVWGTGTTVTVSS
VL: DIVMTQSQKFMSTSVGDRVSITCKASQNVGTAVVWYQQKPGQSPKLLINPASNRYTGVPDRFTGSGSGTDFTLTISNMQSEDLADYFCQQYSSYPLTFGAGTKLELK
notes: Mouse hybridoma mAb
B5: mouse anti-IL6R monoclonal antibody 1F7 (antibody, V domains shown)
VH: QVQLQQPGAELVKPGASVKLSCKASDYTFTSYWMHWVKQRPGQGLEWIGEINPSNGRTNYNEKFKNKATLTVDKSSSTAYVQLYSLTSEDSAVYYCARLSIHYVFDYWGQGTTLTVSS
VL: B2 VL with I2L, I21F, Y50S, R51G, T61P, H62R, G77V
notes: Mouse hybridoma mAb
B6: mouse anti-IL6R monoclonal antibody 1H7 (antibody, V domains shown)
VH: B2 VH with T31N, I34M, E46D, S54T, H63N, S80Y, A89E, V116L
VL: B2 VL with M11L, I21F, A25V, Y50S, N54T, T61A, H62R, I107L
notes: Mouse hybridoma mAb
B7: mouse anti-IL6R monoclonal antibody 1D4 (antibody, V domains shown)
VH: B3 VH with E73N, F83L
VL: B2 VL with T10I, M11L, I21F, A25V, T61A, H62R
notes: Mouse hybridoma mAb
B8: mouse anti-IL6R monoclonal antibody 1A3 (antibody, V domains shown)
VH: QVQLQQPGAELVKPGASVKLSCKASGYTFTSYWMHWVKQRPAQGLEWIGEINPSNGRTNFNEKFKTKATLTVDKSSNTAYMQLSSLTSEDSAVYSCLRLNTHYVFDYWGQGTTLTVSS
VL: B2 VL with Y50S, H62R, E82G
notes: Mouse hybridoma mAb purified on Protein A
B9: mouse anti-IL6R monoclonal antibody 1B5 (antibody, V domains shown)
VH: B3 VH with V39Q, T54S, D63N, E73D, S74K, F83L
VL: B2 VL with T10I, M11L, I21F, A25V, T61A, H62R
notes: Mouse hybridoma mAb

Each binder was assayed against T3, human IL6R-Fc protein (human, biotin-labeled in the ELISAs (sites not given)) (assay: ligand blocking ELISA: antibody pre-incubated with biotin-labeled human IL6R-Fc, added to plate-coated human IL6 (blocked ligand: human IL6)).
T3 construct: In house made; also called biotin-labeled human IL6R-Fc protein
Method: The next day, anti-IL6R antibodies or controls were diluted with biotin labeled human IL6R-Fc protein (prepared in house, SEQ ID NO: 43, 39.5 ng/ml in 2.5% w/v non-fatty milk in PBST), starting at 100 nM with a 4-fold serial dilution, and incubated at room temperature for 40 minutes. […] Plates were washed for 4 times using wash buffer, and added and incubated with 100 μl/well of streptavidin conjugated HRP (1:10000 dilution in PBST buffer, Jackson ImmunoResearch Laboratories, Inc., Cat #016-030-084) for 40 minutes at 37° C. Plates were washed again using wash buffer. Finally, TMB was added and the reaction was stopped using 1M H₂SO₄. The absorbance was read on a microplate reader using dual wavelength mode with 450 nm for TMB and 630 nm as the reference wavelength, and then the OD (450-630) values were plotted against antibody concentration. Data was analyzed using Graphpad Prism software and IC₅₀ values were reported.

Row | Binder | IC50 [nM]
1 | B1 | 2.51
2 | B2 | 0.704
3 | B3 | ~1.44

Biological target: T1, macaca IL6R-his protein
Experiment: SPR Biacore T200; mAb captured by anti-mouse IgG on CM5, antigen in flow, 1:1 fit
Method: (§1) Un-reacted moieties on the biosensor surface were blocked with ethanolamine. […] Then, serially diluted recombinant human IL6R-his (in house made, amino acid sequence set forth in SEQ ID NO: 44) or macaca IL6R-his protein (in house made, amino acid sequence set forth in SEQ ID NO: 45), starting at 100 nM with a 2-fold serial dilution in HBS-EP⁺ buffer (provided by Biacore), was flowed onto the chip at a flow rate of 30 μL/min. The antigen-antibody association kinetics was followed for 2 minutes and the dissociation kinetics was followed for 10 minutes. The association and dissociation curves were fit to a 1:1 Langmuir binding model using BIAcore evaluation software.

Row | Binder | Kd [nM] | koff [s⁻¹] | kon [M⁻¹ s⁻¹]
4 | B4 | 1.65 | 0.000155 | 94100
5 | B5 | 0.523 | 6.46e-05 | 124000
6 | B2 | 0.977 | 0.000127 | 130000
7 | B6 | 0.229 | 3.14e-05 | 137000
8 | B7 | 0.6 | 7.39e-05 | 123000
9 | B8 | 0.328 | 4.54e-05 | 139000
10 | B3 | 0.736 | 8.85e-05 | 120000
11 | B9 | 0.609 | 7.86e-05 | 129000

These binders were tested against T2, recombinant human IL6R-his in the same assay as above.
Method: as §1

Row | Binder | Kd [nM] | koff [s⁻¹] | kon [M⁻¹ s⁻¹]
12 | B4 | 1.08 | 0.00012 | 112000
13 | B5 | 0.537 | 7.46e-05 | 139000
14 | B2 | 0.911 | 0.000135 | 148000
15 | B6 | 0.308 | 4.73e-05 | 153000
16 | B7 | 0.628 | 8.64e-05 | 138000
17 | B8 | 0.293 | 4.32e-05 | 148000
18 | B3 | 0.647 | 9.09e-05 | 141000
19 | B9 | 0.476 | 6.7e-05 | 141000

Each binder was assayed against T3, human IL6R-Fc protein (assay: capture ELISA: antibody captured on anti-IgG F(ab')2 coated plate, then biotin-labeled human IL6R-Fc, streptavidin-HRP).
Method: For the capture ELISA, 96-well micro plates were coated with 2 μg/ml AffiniPure Goat Anti-Mouse IgG, F(ab′)₂ fragment specific (Jackson ImmunoResearch Laboratories, Inc., Cat #115-005-072) in PBS, 100 μl/well, and incubated for 2 hours at 37° C. Plates were washed once with wash buffer (PBS+0.05% v/v Tween-20, PBST) and then blocked with 200 μl/well blocking buffer (5% w/v non-fatty milk in PBST) overnight at 4° C. […] Plates containing captured anti-IL6R antibodies were incubated with biotin-labeled human IL6R-Fc protein (prepared in house, SEQ ID NO: 43, 39.5 ng/ml in 2.5% w/v non-fatty milk in PBST, 100 μl/well) for 40 minutes at 37° C., washed 4 times, and incubated with streptavidin conjugated HRP (1:10000 dilution in PBST, Jackson ImmunoResearch Laboratories, Inc., Cat #016-030-084, 100 μl/well) for 40 minutes at 37° C. After a final wash, plates were incubated with 100 μl/well ELISA substrate TMB (InnoReagents, Cat #TMB-S-002). The reaction was stopped 3-10 minutes later at room temperature with 50 μl/well 1M H₂SO₄, and the absorbance of each well was read on a microplate reader using dual wavelength mode at 450 nm for TMB and 630 nm as the reference wavelength. Then the OD (450-630) values were plotted against antibody concentration. Data was analyzed using Graphpad Prism software and EC₅₀ values were reported.
Target sequence in this assay (chain, as listed by the source limits assumed): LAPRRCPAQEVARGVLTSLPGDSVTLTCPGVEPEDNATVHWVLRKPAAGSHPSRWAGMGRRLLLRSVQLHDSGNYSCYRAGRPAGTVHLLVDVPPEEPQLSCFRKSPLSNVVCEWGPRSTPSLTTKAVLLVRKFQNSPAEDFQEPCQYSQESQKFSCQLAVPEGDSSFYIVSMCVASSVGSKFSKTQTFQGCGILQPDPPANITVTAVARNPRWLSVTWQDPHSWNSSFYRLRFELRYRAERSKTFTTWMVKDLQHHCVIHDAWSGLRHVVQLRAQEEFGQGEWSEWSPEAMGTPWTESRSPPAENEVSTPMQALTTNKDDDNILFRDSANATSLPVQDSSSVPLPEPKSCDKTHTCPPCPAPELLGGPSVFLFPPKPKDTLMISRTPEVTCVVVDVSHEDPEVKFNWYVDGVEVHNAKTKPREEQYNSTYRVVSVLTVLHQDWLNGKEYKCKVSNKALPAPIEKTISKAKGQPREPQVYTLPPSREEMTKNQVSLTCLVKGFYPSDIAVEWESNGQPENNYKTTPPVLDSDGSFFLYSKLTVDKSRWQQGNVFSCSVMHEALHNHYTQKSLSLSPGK

Row | Binder | EC50 [nM]
20 | B4 | 0.0679
21 | B5 | 0.0593
22 | B2 | 0.0536
23 | B6 | 0.0436
24 | B7 | 0.0558
25 | B8 | 0.073
26 | B3 | 0.085
27 | B9 | 0.0372
